{"source": "patent US20080026996A1", "about": "“Selective Vpac2 Receptor Reptide Agonists” (ELI LILLY AND COMPANY, priority 2004, published 2008)", "note": "Where no end group is shown, it is not given here. [ ]: non-standard residue; d: D form. hArg = N=C(N)NCCCC[C@H](N)C(=O)O"}
{"target": "T1, human VPAC2 receptor (human, UniProt P41587 24-438)", "T1 sequence (looked up)": "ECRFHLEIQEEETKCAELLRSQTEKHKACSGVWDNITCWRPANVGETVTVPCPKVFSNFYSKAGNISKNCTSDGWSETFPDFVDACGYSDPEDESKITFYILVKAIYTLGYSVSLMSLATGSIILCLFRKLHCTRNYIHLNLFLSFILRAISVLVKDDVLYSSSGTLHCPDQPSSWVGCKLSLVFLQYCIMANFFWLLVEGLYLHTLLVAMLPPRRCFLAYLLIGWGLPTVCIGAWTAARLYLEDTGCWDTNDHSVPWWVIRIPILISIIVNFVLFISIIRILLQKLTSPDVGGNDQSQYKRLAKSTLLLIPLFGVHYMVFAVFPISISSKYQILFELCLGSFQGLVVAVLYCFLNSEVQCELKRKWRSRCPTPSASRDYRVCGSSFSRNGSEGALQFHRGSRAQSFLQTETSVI", "experiment": "cell-based or functional assay", "units": {"EC50 cAMP, DiscoveRx": "nM", "EC50 cAMP, Alpha Screen": "nM"}}
{"binder": "HSDAVFTDNYTRLRKQVAAIKYLQSIKNKRYGGPSSGAPPPS (not fully specified)", "note": "[P19]", "EC50 cAMP, DiscoveRx": 9.03}
{"binder": "HSDIVFTDNYTRLRKQVAAKKYLQSIKNKRYGGPSSGAPPPS (not fully specified)", "note": "[P50]", "EC50 cAMP, DiscoveRx": 19.2}
{"binder": "HSDAVFTDNYTRLRKQVAAKKYLQSIKNKRHGGPSSGAPPPS", "note": "[P28]", "EC50 cAMP, DiscoveRx": 3.92}
{"binder": "HSDAVFTDNWTRLRKQVAAKKYLQSIKNKRYGGPSSGAPPPS", "note": "[P27]", "EC50 cAMP, DiscoveRx": 27.6}
{"binder": "HSDAVFTDNYTRFRKQVAAKKYLQSIKNKRYGGPSSGAPPPS", "note": "[P26]", "EC50 cAMP, DiscoveRx": 4.81}
{"binder": "HSDAVFTDNYTRLRRQVAARRYLQSIRNRRYGGPSSGAPPPS (not fully specified)", "note": "[P71]", "EC50 cAMP, DiscoveRx": 3.14}
{"binder": "HSDAVFTDNYTRLRKQVAAKKYLQSIKNRRYGGPSSGAPPPS", "note": "[P25]", "EC50 cAMP, DiscoveRx": 3.02}
{"binder": "HSDAVFTDNYTRLRKQVAASKYLQSIKNKRYGGPSSGAPPPS", "note": "[P21]", "EC50 cAMP, Alpha Screen": 11.6, "EC50 cAMP, DiscoveRx": 6.87}
{"binder": "H[dA]DAVFTDNYTRLRKQVAAKKYLQSIKNKRYGGPSSGAPPPS", "note": "[P47]", "EC50 cAMP, Alpha Screen": 1.39, "EC50 cAMP, DiscoveRx": 1.07}
{"binder": "HSDAVFTDNYTRLRKQVAAKKYLQSIRNKRYGGPSSGAPPPS", "note": "[P23]", "EC50 cAMP, Alpha Screen": 2.3, "EC50 cAMP, DiscoveRx": 1.41}
{"binder": "HSDAVFTDNYTRLRRQVAAKKYLQSIKNKRYGGPSSGAPPPS", "note": "[P72]", "EC50 cAMP, DiscoveRx": 1.79}
{"binder": "HSDAVFTDNYTRLRKQVAARKYLQSIKNKRYGGPSSGAPPPS", "note": "[P20]", "EC50 cAMP, Alpha Screen": 2.77, "EC50 cAMP, DiscoveRx": 2.13}
{"binder": "HSDAVFTDNYTRLRKQVAAKKYLQSI[hArg]NKRYGGPSSGAPPPS (ends and bridges not checked)", "note": "[P22]", "EC50 cAMP, Alpha Screen": 2.23, "EC50 cAMP, DiscoveRx": 1.18}
{"target": "T2, human VPAC1 receptor (human, UniProt P32241 31-457)", "T2 sequence (looked up)": "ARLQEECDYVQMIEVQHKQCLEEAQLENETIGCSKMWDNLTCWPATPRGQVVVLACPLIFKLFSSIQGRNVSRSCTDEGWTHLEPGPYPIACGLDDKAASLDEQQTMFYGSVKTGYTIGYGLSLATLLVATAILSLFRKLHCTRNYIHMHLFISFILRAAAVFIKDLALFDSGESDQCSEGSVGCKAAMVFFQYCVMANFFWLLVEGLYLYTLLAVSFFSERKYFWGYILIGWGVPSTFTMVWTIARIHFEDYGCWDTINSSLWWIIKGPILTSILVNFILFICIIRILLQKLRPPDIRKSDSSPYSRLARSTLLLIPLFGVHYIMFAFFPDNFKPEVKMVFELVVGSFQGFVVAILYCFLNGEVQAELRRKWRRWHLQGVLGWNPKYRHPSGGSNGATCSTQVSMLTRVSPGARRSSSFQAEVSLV", "experiment": "cell-based or functional assay", "units": {"EC50 cAMP, DiscoveRx": "nM"}}
{"binder": "HSDAVFTDNYTRLRKQVAAIKYLQSIKNKRYGGPSSGAPPPS (not fully specified)", "note": "[P19]", "EC50 cAMP, DiscoveRx": 2.9}
{"binder": "HSDIVFTDNYTRLRKQVAAKKYLQSIKNKRYGGPSSGAPPPS (not fully specified)", "note": "[P50]", "EC50 cAMP, DiscoveRx": 111}
{"binder": "HSDAVFTDNYTRLRKQVAAKKYLQSIKNKRHGGPSSGAPPPS", "note": "[P28]", "EC50 cAMP, DiscoveRx": 2.6}
{"binder": "HSDAVFTDNWTRLRKQVAAKKYLQSIKNKRYGGPSSGAPPPS", "note": "[P27]", "EC50 cAMP, DiscoveRx": 5.2}
{"binder": "HSDAVFTDNYTRFRKQVAAKKYLQSIKNKRYGGPSSGAPPPS", "note": "[P26]", "EC50 cAMP, DiscoveRx": 0.9}
{"binder": "HSDAVFTDNYTRLRRQVAARRYLQSIRNRRYGGPSSGAPPPS (not fully specified)", "note": "[P71]", "EC50 cAMP, DiscoveRx": 0.2}
{"binder": "HSDAVFTDNYTRLRKQVAAKKYLQSIKNRRYGGPSSGAPPPS", "note": "[P25]", "EC50 cAMP, DiscoveRx": 2.7}
{"binder": "HSDAVFTDNYTRLRKQVAASKYLQSIKNKRYGGPSSGAPPPS", "note": "[P21]", "EC50 cAMP, DiscoveRx": 10.7}
{"binder": "H[dA]DAVFTDNYTRLRKQVAAKKYLQSIKNKRYGGPSSGAPPPS", "note": "[P47]", "EC50 cAMP, DiscoveRx": 3.6}
{"binder": "HSDAVFTDNYTRLRKQVAAKKYLQSIRNKRYGGPSSGAPPPS", "note": "[P23]", "EC50 cAMP, DiscoveRx": 0.9}
{"binder": "HSDAVFTDNYTRLRRQVAAKKYLQSIKNKRYGGPSSGAPPPS", "note": "[P72]", "EC50 cAMP, DiscoveRx": 0.3}
{"binder": "HSDAVFTDNYTRLRKQVAARKYLQSIKNKRYGGPSSGAPPPS", "note": "[P20]", "EC50 cAMP, DiscoveRx": 2}
{"binder": "HSDAVFTDNYTRLRKQVAAKKYLQSI[hArg]NKRYGGPSSGAPPPS (ends and bridges not checked)", "note": "[P22]", "EC50 cAMP, DiscoveRx": 0.9}
{"target": "T3, human PAC1 receptor (human, UniProt P41586 21-468)", "T3 sequence (looked up)": "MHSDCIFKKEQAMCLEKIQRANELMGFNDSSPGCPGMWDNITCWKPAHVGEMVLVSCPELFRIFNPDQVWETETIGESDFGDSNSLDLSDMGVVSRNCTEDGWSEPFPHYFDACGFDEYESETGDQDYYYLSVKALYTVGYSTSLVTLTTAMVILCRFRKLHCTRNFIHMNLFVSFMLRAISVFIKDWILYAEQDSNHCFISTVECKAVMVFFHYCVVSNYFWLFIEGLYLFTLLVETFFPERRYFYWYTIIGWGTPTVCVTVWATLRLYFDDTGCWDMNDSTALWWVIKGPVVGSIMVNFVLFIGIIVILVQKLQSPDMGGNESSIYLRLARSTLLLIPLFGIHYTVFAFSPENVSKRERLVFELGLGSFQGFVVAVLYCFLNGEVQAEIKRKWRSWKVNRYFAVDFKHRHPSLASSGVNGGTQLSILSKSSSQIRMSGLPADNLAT", "experiment": "cell-based or functional assay", "units": {"EC50 cAMP, DiscoveRx": "nM"}}
{"binder": "HSDAVFTDNYTRLRKQVAAKKYLQSIKNKRHGGPSSGAPPPS", "note": "[P28]", "EC50 cAMP, DiscoveRx": 53.6}
{"binder": "HSDAVFTDNWTRLRKQVAAKKYLQSIKNKRYGGPSSGAPPPS", "note": "[P27]", "EC50 cAMP, DiscoveRx": "> 100"}
{"binder": "HSDAVFTDNYTRFRKQVAAKKYLQSIKNKRYGGPSSGAPPPS", "note": "[P26]", "EC50 cAMP, DiscoveRx": 84}
{"binder": "HSDAVFTDNYTRLRRQVAARRYLQSIRNRRYGGPSSGAPPPS (not fully specified)", "note": "[P71]", "EC50 cAMP, DiscoveRx": 14.6}
{"binder": "HSDAVFTDNYTRLRKQVAAKKYLQSIKNRRYGGPSSGAPPPS", "note": "[P25]", "EC50 cAMP, DiscoveRx": 137}
{"binder": "HSDAVFTDNYTRLRKQVAASKYLQSIKNKRYGGPSSGAPPPS", "note": "[P21]", "EC50 cAMP, DiscoveRx": "> 100"}
{"binder": "H[dA]DAVFTDNYTRLRKQVAAKKYLQSIKNKRYGGPSSGAPPPS", "note": "[P47]", "EC50 cAMP, DiscoveRx": 136}
{"binder": "HSDAVFTDNYTRLRKQVAAKKYLQSIRNKRYGGPSSGAPPPS", "note": "[P23]", "EC50 cAMP, DiscoveRx": 98.3}
{"binder": "HSDAVFTDNYTRLRRQVAAKKYLQSIKNKRYGGPSSGAPPPS", "note": "[P72]", "EC50 cAMP, DiscoveRx": 35.3}
{"binder": "HSDAVFTDNYTRLRKQVAARKYLQSIKNKRYGGPSSGAPPPS", "note": "[P20]", "EC50 cAMP, DiscoveRx": "> 25"}
{"binder": "HSDAVFTDNYTRLRKQVAAKKYLQSI[hArg]NKRYGGPSSGAPPPS (ends and bridges not checked)", "note": "[P22]", "EC50 cAMP, DiscoveRx": 73.5}
